The text below walks through data of patent US20100260668A1 (published 2010).

To fix the notation:
B1: DVD503 (bispecific antibody, human IgG1, kappa)
heavy: not shown
light: DIQMTQSSSYLSVSLGGRVTITCKASDHINNWLAWYQQKPGNAPRLLISGATSLETGVPSRFSGSGSGKDYTLSITSLQTEDVATYYCQQYWSIPLTFGAGTKLELKRTVAAPDIQMTQSPSSLSASVGDRVTITCRASQVIRRSLAWYQQKPGKAPKLLIYAASNLASGVPSRFSGSGSGTDFTLTISSLQPEDFATYYCQQSNTSPLTFGQGTKVEIKRTVAAPSVFIFPPSDEQLKSGTASVVCLLNNFYPREAKVQWKVDNALQSGNSQESVTEQDSKDSTYSLSSTLTLSKADYEKHKVYACEVTHQGLSSPVTKSFNRGEC
notes: DVD-Ig; N-term; VD DLL4 (AB072), C-term; VD VEGF (AB071); HC linker long, LC linker short; also called DVD-Ig DVD503; DVD503H
B2: DVD509 (bispecific antibody, human IgG1, kappa)
heavy: not shown
light: DIQMTQSSSYLSVSLGGRVTITCKASDHINNWLAWYQQKPGNAPRLLISGATSLETGVPSRFSGSGSGKDYTLSITSLQTEDVATYYCQQYWSIPLTFGAGTKLELKRTVAAPSVFIFPPDIQMTQSPSSLSASVGDRVTITCRASQVIRRSLAWYQQKPGKAPKLLIYAASNLASGVPSRFSGSGSGTDFTLTISSLQPEDFATYYCQQSNTSPLTFGQGTKVEIKRTVAAPSVFIFPPSDEQLKSGTASVVCLLNNFYPREAKVQWKVDNALQSGNSQESVTEQDSKDSTYSLSSTLTLSKADYEKHKVYACEVTHQGLSSPVTKSFNRGEC
notes: DVD-Ig; N-term; VD DLL4 (AB072), C-term; VD VEGF (AB071); HC linker short, LC linker long; also called DVD-Ig DVD509; DVD509H
B3: DVD468 (bispecific antibody, human IgG1, kappa)
heavy: not shown
light: DIQMTQSPSSLSASVGDRVTITCRASQVIRRSLAWYQQKPGKAPKLLIYAASNLASGVPSRFSGSGSGTDFTLTISSLQPEDFATYYCQQSNTSPLTFGQGTKVEIKRTVAAPDIQMTQSPSSLSASVGDRVTITCRASQDVSTAVAWYQQKPGKAPKLLIYSASFLYSGVPSRFSGSGSGTDFTLTISSLQPEDFATTYYCQQSYTGTVTFGQGTKVEIKRTVAAPSVFIFPPSDEQLKSGTASVVCLLNNFYPREAKVQWKVDNALQSGNSQESVTEQDSKDSTYSLSSTLTLSKADYEKHKVYACEVTHQGLSSPVTKSFNRGEC
notes: DVD-Ig; N-term; VD VEGF (AB071), C-term; VD DLL4 (AB015); HC linker short, LC linker short; also called DVD-Ig DVD468; DVD468H
B4: DVD474 (bispecific antibody, IgG1)
VH: EVQLVESGGGLVQPGGSLRLSCAASGFTINASWIHWVRQAPGKGLEWVGAIYPYSGYTNYADSVKGRFTISADTSKNTAYLQMNSLRAEDTAVYYCARWGHSTSPWAMDYWGQGTLVTVSSASTKGPSVFPLAPEVQLVESGGGLVQPGGSLRLSCAASGFTFTDNWISWVRQAPGKGLEWVGYISPNSGFTYYADSVKGRFTISADTSKNTAYLQMNSLRAEDTAVYYCARDNFGGYFDYWGQGTLVTVSS
VL: DIQMTQSPSSLSASVGDRVTITCRASQVIRRSLAWYQQKPGKAPKLLIYAASNLASGVPSRFSGSGSGTDFTLTISSLQPEDFATYYCQQSNTSPLTFGQGTKVEIKRTVAAPSVFIFPPDIQMTQSPSSLSASVGDRVTITCRASQDVSTAVAWYQQKPGKAPKLLIYSASFLYSGVPSRFSGSGSGTDFTLTISSLQPEDFATTYYCQQSYTGTVTFGQGTKVEIKR
notes: DVD-Ig, outer AB071 / inner AB015; HC linker long, LC linker long; also called DVD474H; DVD474L
B5: DVD468 (bispecific antibody, IgG1)
VH: EVQLVESGGGLVQPGGSLRLSCAASGFTINASWIHWVRQAPGKGLEWVGAIYPYSGYTNYADSVKGRFTISADTSKNTAYLQMNSLRAEDTAVYYCARWGHSTSPWAMDYWGQGTLVTVSSASTKGPEVQLVESGGGLVQPGGSLRLSCAASGFTFTDNWISWVRQAPGKGLEWVGYISPNSGFTYYADSVKGRFTISADTSKNTAYLQMNSLRAEDTAVYYCARDNFGGYFDYWGQGTLVTVSS
VL: DIQMTQSPSSLSASVGDRVTITCRASQVIRRSLAWYQQKPGKAPKLLIYAASNLASGVPSRFSGSGSGTDFTLTISSLQPEDFATYYCQQSNTSPLTFGQGTKVEIKRTVAAPDIQMTQSPSSLSASVGDRVTITCRASQDVSTAVAWYQQKPGKAPKLLIYSASFLYSGVPSRFSGSGSGTDFTLTISSLQPEDFATTYYCQQSYTGTVTFGQGTKVEIKR
notes: DVD-Ig, outer AB071 / inner AB015; HC linker short, LC linker short; also called DVD468H; DVD468L
B6: DVD486 (bispecific antibody, IgG1)
VH: EVQLVESGGGLVQPGGSLRLSCAASGFTINASWIHWVRQAPGKGLEWVGAIYPYSGYTNYADSVKGRFTISADTSKNTAYLQMNSLRAEDTAVYYCARWGHSTSPWAMDYWGQGTLVTVSSASTKGPEVQLVESGGGLVQPGGSLRLSCAASGFTFTDNWISWVRQAPGKGLEWVGYISPNSGFTYYADSVKGRFTISADTSKNTAYLQMNSLRAEDTAVYYCARDNFGGYFDYWGQGTLVTVSS
VL: DIQMTQSPSSLSASVGDRVTITCRASQVIRRSLAWYQQKPGKAPKLLIYAASNLASGVPSRFSGSGSGTDFTLTISSLQPEDFATYYCQQSNTSPLTFGQGTKVEIKRTVAAPSVFIFPPDIQMTQSPSSLSASVGDRVTITCRASQDVSTAVAWYQQKPGKAPKLLIYSASFLYSGVPSRFSGSGSGTDFTLTISSLQPEDFATTYYCQQSYTGTVTFGQGTKVEIKR
notes: DVD-Ig, outer AB071 / inner AB015; HC linker short, LC linker long; also called DVD486H; DVD486L
B7: DVD480 (bispecific antibody, IgG1)
VH: EVQLVESGGGLVQPGGSLRLSCAASGFTINASWIHWVRQAPGKGLEWVGAIYPYSGYTNYADSVKGRFTISADTSKNTAYLQMNSLRAEDTAVYYCARWGHSTSPWAMDYWGQGTLVTVSSASTKGPSVFPLAPEVQLVESGGGLVQPGGSLRLSCAASGFTFTDNWISWVRQAPGKGLEWVGYISPNSGFTYYADSVKGRFTISADTSKNTAYLQMNSLRAEDTAVYYCARDNFGGYFDYWGQGTLVTVSS
VL: DIQMTQSPSSLSASVGDRVTITCRASQVIRRSLAWYQQKPGKAPKLLIYAASNLASGVPSRFSGSGSGTDFTLTISSLQPEDFATYYCQQSNTSPLTFGQGTKVEIKRTVAAPDIQMTQSPSSLSASVGDRVTITCRASQDVSTAVAWYQQKPGKAPKLLIYSASFLYSGVPSRFSGSGSGTDFTLTISSLQPEDFATTYYCQQSYTGTVTFGQGTKVEIKR
notes: DVD-Ig, outer AB071 / inner AB015; HC linker long, LC linker short; also called DVD480H; DVD480L
B8: DVD467 (bispecific antibody, IgG1)
VH: EVQLVESGGGLVQPGGSLRLSCAASGFTFTDNWISWVRQAPGKGLEWVGYISPNSGFTYYADSVKGRFTISADTSKNTAYLQMNSLRAEDTAVYYCARDNFGGYFDYWGQGTLVTVSSASTKGPEVQLVESGGGLVQPGGSLRLSCAASGFTINASWIHWVRQAPGKGLEWVGAIYPYSGYTNYADSVKGRFTISADTSKNTAYLQMNSLRAEDTAVYYCARWGHSTSPWAMDYWGQGTLVTVSS
VL: DIQMTQSPSSLSASVGDRVTITCRASQDVSTAVAWYQQKPGKAPKLLIYSASFLYSGVPSRFSGSGSGTDFTLTISSLQPEDFATTYYCQQSYTGTVTFGQGTKVEIKRTVAAPDIQMTQSPSSLSASVGDRVTITCRASQVIRRSLAWYQQKPGKAPKLLIYAASNLASGVPSRFSGSGSGTDFTLTISSLQPEDFATYYCQQSNTSPLTFGQGTKVEIKR
notes: DVD-Ig, outer AB015 / inner AB071; HC linker short, LC linker short; also called DVD467H; DVD467L
B9: DVD485 (bispecific antibody, IgG1)
VH: EVQLVESGGGLVQPGGSLRLSCAASGFTFTDNWISWVRQAPGKGLEWVGYISPNSGFTYYADSVKGRFTISADTSKNTAYLQMNSLRAEDTAVYYCARDNFGGYFDYWGQGTLVTVSSASTKGPEVQLVESGGGLVQPGGSLRLSCAASGFTINASWIHWVRQAPGKGLEWVGAIYPYSGYTNYADSVKGRFTISADTSKNTAYLQMNSLRAEDTAVYYCARWGHSTSPWAMDYWGQGTLVTVSS
VL: DIQMTQSPSSLSASVGDRVTITCRASQDVSTAVAWYQQKPGKAPKLLIYSASFLYSGVPSRFSGSGSGTDFTLTISSLQPEDFATTYYCQQSYTGTVTFGQGTKVEIKRTVAAPSVFIFPPDIQMTQSPSSLSASVGDRVTITCRASQVIRRSLAWYQQKPGKAPKLLIYAASNLASGVPSRFSGSGSGTDFTLTISSLQPEDFATYYCQQSNTSPLTFGQGTKVEIKR
notes: DVD-Ig, outer AB015 / inner AB071; HC linker short, LC linker long; also called DVD485H; DVD485L
B10: DVD479 (bispecific antibody, IgG1)
VH: EVQLVESGGGLVQPGGSLRLSCAASGFTFTDNWISWVRQAPGKGLEWVGYISPNSGFTYYADSVKGRFTISADTSKNTAYLQMNSLRAEDTAVYYCARDNFGGYFDYWGQGTLVTVSSASTKGPSVFPLAPEVQLVESGGGLVQPGGSLRLSCAASGFTINASWIHWVRQAPGKGLEWVGAIYPYSGYTNYADSVKGRFTISADTSKNTAYLQMNSLRAEDTAVYYCARWGHSTSPWAMDYWGQGTLVTVSS
VL: DIQMTQSPSSLSASVGDRVTITCRASQDVSTAVAWYQQKPGKAPKLLIYSASFLYSGVPSRFSGSGSGTDFTLTISSLQPEDFATTYYCQQSYTGTVTFGQGTKVEIKRTVAAPDIQMTQSPSSLSASVGDRVTITCRASQVIRRSLAWYQQKPGKAPKLLIYAASNLASGVPSRFSGSGSGTDFTLTISSLQPEDFATYYCQQSNTSPLTFGQGTKVEIKR
notes: DVD-Ig, outer AB015 / inner AB071; HC linker long, LC linker short; also called DVD479H; DVD479L
B11: DVD465 (bispecific antibody, IgG1)
VH: EVQLVESGGGLVQPGGSLRLSCAASGFTFTDNWISWVRQAPGKGLEWVGYISPNSGFTYYADSVKGRFTISADTSKNTAYLQMNSLRAEDTAVYYCARDNFGGYFDYWGQGTLVTVSSASTKGPEVQLVESGGGLVQPGGSLRLSCAASGFTISDYWIHWVRQAPGKGLEWVAGITPAGGYTYYADSVKGRFTISADTSKNTAYLQMNSLRAEDTAVYYCARFVFFLPYAMDYWGQGTLVTVSS
VL: DIQMTQSPSSLSASVGDRVTITCRASQDVSTAVAWYQQKPGKAPKLLIYSASFLYSGVPSRFSGSGSGTDFTLTISSLQPEDFATTYYCQQSYTGTVTFGQGTKVEIKRTVAAPDIQMTQSPSSLSASVGDRVTITCRASQDVSTAVAWYQQKPGKAPKLLIYSASFLYSGVPSRFSGSGSGTDFTLTISSLQPEDFATYYCQQSYTTPPTFGQGTKVEIKR
notes: HC linker short, LC linker short; also called DVD465H; DVD465L
B12: DVD473 (bispecific antibody, IgG1)
VH: EVQLVESGGGLVQPGGSLRLSCAASGFTFTDNWISWVRQAPGKGLEWVGYISPNSGFTYYADSVKGRFTISADTSKNTAYLQMNSLRAEDTAVYYCARDNFGGYFDYWGQGTLVTVSSASTKGPSVFPLAPEVQLVESGGGLVQPGGSLRLSCAASGFTINASWIHWVRQAPGKGLEWVGAIYPYSGYTNYADSVKGRFTISADTSKNTAYLQMNSLRAEDTAVYYCARWGHSTSPWAMDYWGQGTLVTVSS
VL: DIQMTQSPSSLSASVGDRVTITCRASQDVSTAVAWYQQKPGKAPKLLIYSASFLYSGVPSRFSGSGSGTDFTLTISSLQPEDFATTYYCQQSYTGTVTFGQGTKVEIKRTVAAPSVFIFPPDIQMTQSPSSLSASVGDRVTITCRASQVIRRSLAWYQQKPGKAPKLLIYAASNLASGVPSRFSGSGSGTDFTLTISSLQPEDFATYYCQQSNTSPLTFGQGTKVEIKR
notes: DVD-Ig, outer AB015 / inner AB071; HC linker long, LC linker long; also called DVD473H; DVD473L

The target in the first experiment is T1, DLL4 (DLL ECD His tag, R&D 1506-D4-050) (UniProt Q9NR61 27-529).
T1 construct: extracellular domain; bought
Briefly: BIACORE (SPR), DVD-Ig against DLL4. In general terms: SPR reads the build-up and loss of mass on a sensor chip optically.
Take B1: the Kd (commonly the constant that tells how readily two partners part at equilibrium) stood at 0.192 nM; the koff – broadly, the first-order rate constant of dissociation – was 4.72e-05 s⁻¹; the kon (usually the second-order rate constant of association) was 246000 M⁻¹ s⁻¹.
On the same counts, the results for B2 are 0.153 nM, 3.52e-05 s⁻¹ and 230000 M⁻¹ s⁻¹.
B3 registered a Kd of 3.76 nM, a koff of 0.000219 s⁻¹ and a kon of 58200 M⁻¹ s⁻¹.

In the next experiment the target is VEGF (VEGF 1-165 aa, R&D Systems 293-VE-010) (UniProt P15692 27-191). The experiment in a line: Direct bind ELISA, VEGF coated on plate.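 Note: ELISA screening of antibodies for binding to the plate-coated target antigen.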 A general note: ELISA stands for enzyme-linked immunosorbent assay.
VEGF (VEGF 1-165 aa, R&D Systems 293-VE-010), sequence (P15692 other isoform, or with tags, fused parts or gaps limits assumed): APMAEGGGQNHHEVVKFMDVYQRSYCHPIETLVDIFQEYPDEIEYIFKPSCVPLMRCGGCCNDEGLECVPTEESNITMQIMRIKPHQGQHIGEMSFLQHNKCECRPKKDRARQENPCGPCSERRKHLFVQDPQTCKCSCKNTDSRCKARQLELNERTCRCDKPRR
For the molecule B4, the midpoint of the response, the EC50, lay at 17.9 nM.
Regarding B5, a half-maximal response (EC50) required 25.6 nM.
The same measure, in the same setting: then B6, with 28 nM; and B7, with 23 nM; and B8, with 1810 nM.
B9: the 50% effective concentration (EC50) (usually the midpoint of the concentration-response curve) came to 121 nM.
Consider B10, for which the half-maximal effective concentration (EC50) came out at 456 nM.
In turn, B11 came in with an EC50 of 396 nM.
B12 returned an EC50 of 388 nM.
